Measurements published in US20160272683A1 (Novo Nordisk, published 2016).
Numbered stars: 1 amine (or outer) side, 2 acyl side, 3 side chain; on linkers, the order of the positions; unused ones are H or OH. * marks the point of attachment. C18 diacid = O=C(O)CCCCCCCCCCCCCCCCC(=O)*; γGlu = O=C(O)[C@H](CCC(=O)[*:2])N[*:1]

T1: human calcitonin receptor (human, UniProt P30988 25-474)
T1 sequence (looked up): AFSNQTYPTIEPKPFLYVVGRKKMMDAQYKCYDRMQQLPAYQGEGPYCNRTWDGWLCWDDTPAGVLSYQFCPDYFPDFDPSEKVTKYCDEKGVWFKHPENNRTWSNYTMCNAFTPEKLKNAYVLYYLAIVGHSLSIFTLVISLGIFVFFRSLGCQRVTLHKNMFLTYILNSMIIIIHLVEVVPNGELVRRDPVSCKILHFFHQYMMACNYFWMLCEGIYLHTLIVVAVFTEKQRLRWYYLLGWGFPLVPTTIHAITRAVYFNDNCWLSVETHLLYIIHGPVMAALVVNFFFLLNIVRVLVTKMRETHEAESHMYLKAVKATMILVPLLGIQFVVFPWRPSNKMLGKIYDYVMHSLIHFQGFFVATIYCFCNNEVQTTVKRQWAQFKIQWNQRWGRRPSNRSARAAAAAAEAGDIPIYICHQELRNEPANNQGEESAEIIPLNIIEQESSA

T2: human amylin 3(a) receptor (human calcitonin receptor co-expressed with RAMP-3) (human, UniProt P30988 25-474; O60896 24-148, limits assumed)
T2 sequence (looked up) 1: T1 sequence (looked up)
T2 sequence (looked up) 2: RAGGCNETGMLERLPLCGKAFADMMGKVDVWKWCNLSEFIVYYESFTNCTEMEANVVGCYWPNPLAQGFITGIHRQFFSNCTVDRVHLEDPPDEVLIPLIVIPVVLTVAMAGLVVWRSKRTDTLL

B1: [N-terminal(C18 diacid), 9V]mimylin (peptide)
peptide: {C18 diacid}-EASELSTAVLGRLSAELHELATLPRTETGPESP-NH2
SMILES: CC(C)C[C@H](NC(=O)[C@H](CCC(=O)O)NC(=O)[C@H](Cc1c[nH]cn1)NC(=O)[C@H](CC(C)C)NC(=O)[C@H](CCC(=O)O)NC(=O)[C@H](C)NC(=O)[C@H](CO)NC(=O)[C@H](CC(C)C)NC(=O)[C@H](CCCNC(=N)N)NC(=O)CNC(=O)[C@H](CC(C)C)NC(=O)[C@@H](NC(=O)[C@H](C)NC(=O)[C@@H](NC(=O)[C@H](CO)NC(=O)[C@H](CC(C)C)NC(=O)[C@H](CCC(=O)O)NC(=O)[C@H](CO)NC(=O)[C@H](C)NC(=O)[C@H](CCC(=O)O)NC(=O)CCCCCCCCCCCCCCCCC(=O)O)[C@@H](C)O)C(C)C)C(=O)N[C@@H](C)C(=O)N[C@H](C(=O)N[C@@H](CC(C)C)C(=O)N1CCC[C@H]1C(=O)N[C@@H](CCCNC(=N)N)C(=O)N[C@H](C(=O)N[C@@H](CCC(=O)O)C(=O)N[C@H](C(=O)NCC(=O)N1CCC[C@H]1C(=O)N[C@@H](CCC(=O)O)C(=O)N[C@@H](CO)C(=O)N1CCC[C@H]1C(N)=O)[C@@H](C)O)[C@@H](C)O)[C@@H](C)O
B2: [N-terminal(C18 diacid-gGlu), des1, 5V, 9V, 10V, 30S, 31G]mimylin (peptide)
peptide: {C18 diacid-γGlu}-ASEVSTAVVGRLSAELHELATLPRTETGSGSP-NH2
SMILES: CC(C)C[C@H](NC(=O)[C@H](CCC(=O)O)NC(=O)[C@H](Cc1c[nH]cn1)NC(=O)[C@H](CC(C)C)NC(=O)[C@H](CCC(=O)O)NC(=O)[C@H](C)NC(=O)[C@H](CO)NC(=O)[C@H](CC(C)C)NC(=O)[C@H](CCCNC(=N)N)NC(=O)CNC(=O)[C@@H](NC(=O)[C@@H](NC(=O)[C@H](C)NC(=O)[C@@H](NC(=O)[C@H](CO)NC(=O)[C@@H](NC(=O)[C@H](CCC(=O)O)NC(=O)[C@H](CO)NC(=O)[C@H](C)NC(=O)CC[C@H](NC(=O)CCCCCCCCCCCCCCCCC(=O)O)C(=O)O)C(C)C)[C@@H](C)O)C(C)C)C(C)C)C(=O)N[C@@H](C)C(=O)N[C@H](C(=O)N[C@@H](CC(C)C)C(=O)N1CCC[C@H]1C(=O)N[C@@H](CCCNC(=N)N)C(=O)N[C@H](C(=O)N[C@@H](CCC(=O)O)C(=O)N[C@H](C(=O)NCC(=O)N[C@@H](CO)C(=O)NCC(=O)N[C@@H](CO)C(=O)N1CCC[C@H]1C(N)=O)[C@@H](C)O)[C@@H](C)O)[C@@H](C)O

biological target: T1, human calcitonin receptor; assay: cell-based or functional assay

Going from B1 to B2, the “hCTR funct. EC50 (pM)” value falls from 9 pM to 8 pM.

First: {C18 diacid-γGlu}-ASELTTAVLGRLSAELHELATLPRTETGSGTP-NH2 [[N-terminal(C18 diacid-gGlu), des1, 6T, 9V, 30S, 31G, 32T]mimylin]
Second: {C18 diacid-γGlu}-ASELTTAVLGRLSAELHELATLPRTETGTGTP-NH2 [[N-terminal(C18 diacid-gGlu), des1, 6T, 9V, 30T, 31G, 32T]mimylin]
The “hCTR funct. EC50 (pM)” value of the first is lower: 30 pM for the first, 32 pM for the second.

biological target: T2, human amylin 3(a) receptor (human …); assay: cell-based or functional assay

First: B1
Second: B2
The “hAmylin-R funct. EC50 (pM)” value of the first is higher: 12 pM for the first, 11 pM for the second.

Going from {C18 diacid-γGlu}-ASELTTAVLGRLSAELHELATLPRTETGSGTP-NH2 [[N-terminal(C18 diacid-gGlu), des1, 6T, 9V, 30S, 31G, 32T]mimylin] to {C18 diacid-γGlu}-ASELTTAVLGRLSAELHELATLPRTETGTGTP-NH2 [[N-terminal(C18 diacid-gGlu), des1, 6T, 9V, 30T, 31G, 32T]mimylin], the “hAmylin-R funct. EC50 (pM)” value rises from 42 pM to 65 pM.
